Article PMC3665681

Molecular target: A3B3 of Thermus thermophilus VoV1 (His-tagged A3B3, expressed without a rotor subunit) (T. thermophilus) (UniProt Q56403)
Sequence of UniProt Q56403 (Q56403 whole entry C28S/S232A/T235S/C255A, chain 1 of 2): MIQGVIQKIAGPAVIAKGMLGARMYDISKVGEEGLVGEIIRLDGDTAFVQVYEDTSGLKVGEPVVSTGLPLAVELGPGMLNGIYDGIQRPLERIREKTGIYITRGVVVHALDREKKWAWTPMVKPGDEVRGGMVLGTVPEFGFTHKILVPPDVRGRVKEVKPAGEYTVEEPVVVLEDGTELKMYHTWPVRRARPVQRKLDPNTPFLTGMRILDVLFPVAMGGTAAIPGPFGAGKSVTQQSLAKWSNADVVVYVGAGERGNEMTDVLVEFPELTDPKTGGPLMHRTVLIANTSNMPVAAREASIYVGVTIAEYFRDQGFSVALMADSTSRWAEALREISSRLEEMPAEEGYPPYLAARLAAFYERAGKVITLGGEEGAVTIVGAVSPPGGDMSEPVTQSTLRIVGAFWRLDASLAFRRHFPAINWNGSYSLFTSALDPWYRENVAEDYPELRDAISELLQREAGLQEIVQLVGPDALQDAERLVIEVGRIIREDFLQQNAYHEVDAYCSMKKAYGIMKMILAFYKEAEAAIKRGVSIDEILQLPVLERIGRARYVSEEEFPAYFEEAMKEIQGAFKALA
Sequence of UniProt Q56403 (Q56404 whole entry C264S, chain 2 of 2, further chain): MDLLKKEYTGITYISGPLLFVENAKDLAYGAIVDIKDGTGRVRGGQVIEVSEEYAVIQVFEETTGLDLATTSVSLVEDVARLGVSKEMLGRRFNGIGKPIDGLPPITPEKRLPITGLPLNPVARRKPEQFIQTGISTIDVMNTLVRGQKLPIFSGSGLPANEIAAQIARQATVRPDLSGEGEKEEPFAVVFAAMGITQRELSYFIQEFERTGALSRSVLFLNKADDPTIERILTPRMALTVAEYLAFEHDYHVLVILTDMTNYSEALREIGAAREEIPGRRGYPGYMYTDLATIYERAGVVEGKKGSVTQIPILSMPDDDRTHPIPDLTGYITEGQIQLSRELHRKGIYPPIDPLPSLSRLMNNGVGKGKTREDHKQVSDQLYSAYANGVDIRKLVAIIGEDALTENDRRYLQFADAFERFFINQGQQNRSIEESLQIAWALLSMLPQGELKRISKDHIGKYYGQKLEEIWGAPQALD

## FliJ of Salmonella enterica serovar Typhimurium (from UniProt P0A1K1 1-147) (natural protein)
  ATPase turnover rate of A3B3J (A3B3 alone ∼4.0 s^−1); 25°C, 4 mM MgATP: 7 s⁻¹
